Results from the supplement of paper PMC7877785.
± gives the uncertainty stated by the source.

Experiment: self-splicing fitness, log relative to wild type (ln ratio); higher = more splicing; Tetrahymena group I intron in knt gene, E. coli kanamycin selection, DiMSum; sequences stand for … in CUCUCU…GGAGGGAAAAGUUAUCAGGCAUGCACCUGGUAGCUAGUCUUUAAACCAAUAGAUUGCAUCGGUUUAAAAGGCAAGACCGUCAAAUUGCGGGAAAGGGGUCAACAGCCGUUCAGUACCAAGUCUCAGGGGAAACUUUGAGAUGGCCUUGCAAAGGGUAUGGUAAUAAGCUGACGGACAUGGUCCUAACCACGCAGCCAAGUCCUAAGUCAACAGAUCUUCUGUUGAUAUGGAUGCAGUUCACAGACUAAAUGUCGGUCGGGGAAGAUGUAUUCUUCUCAUAAGAUAUAGUCGGACCUCUCCUUAAUGGGAGCUAGCGGAUGAAGUGAUGCAACACUGGAGCCGCUGGGAACUAAUUUGUAUGCGAAAGUAUAUUGAUUAGUUUUGGAGUACUCGUGGUCG
In short: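 Colonies from six replicate transformations of E. coli BL21(DE3) were pooled and amplicon-sequenced on an Illumina HiSeq 2500. The library placed an intron with all eight P1ex-region nucleotides randomised inside the knt kanamycin-resistance gene on pET-22b(+), and cells grew overnight at 37°C or 30°C on LB agar with or without 25 μg/mL kanamycin (plus 100 μg/mL carbenicillin, 50 μM IPTG, 0.2% rhamnose). Fitness is the DiMSum error-weighted combination of wild-type-normalised replicate fold changes, kanamycin versus none.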

| Sequence | self-splicing fitness (ln) (30 °C) | self-splicing fitness (ln) (37 °C) |
| --- | --- | --- |
| CAUUAGCAAUAUUACGUCUG | -0.197 ± 0.062 | 0.00612 ± 0.072 |
| CAUUAGCAAUAUUACGUGCC | -2.77 ± 0.29 | -2.26 ± 0.45 |
| CAUUAGCAAUAUUACGUGGC | -2.79 ± 0.36 | -2.09 ± 0.33 |
| CAUUAGCAAUAUUACGUUAU |  | -1.91 ± 0.22 |
| CAUUAGCAAUAUUACGUUGU | -3.95 ± 0.23 | -2.75 ± 0.22 |
| CCAAAGCAAUAUUACGAAAC | -3.13 ± 0.2 | -2.95 ± 0.34 |
| CCAAAGCAAUAUUACGAAAG | -1.14 ± 0.088 | -0.678 ± 0.11 |
| CCAAAGCAAUAUUACGAACU | -2.89 ± 0.29 | -2.13 ± 0.38 |
| CCAAAGCAAUAUUACGACGG | -3.1 ± 0.14 | -2.43 ± 0.19 |
| CCAAAGCAAUAUUACGAGAU | -3.13 ± 0.2 | -2.5 ± 0.23 |
| CCAAAGCAAUAUUACGAGCU | -3.38 ± 0.22 | -2.14 ± 0.22 |
| CCAAAGCAAUAUUACGAGUC | -3.73 ± 0.2 | -2.04 ± 0.19 |
| CCAAAGCAAUAUUACGCAAC | -1.96 ± 0.1 | -2.53 ± 0.23 |
| CCAAAGCAAUAUUACGCAUC | -3.89 ± 0.16 | -3.05 ± 0.16 |
| CCAAAGCAAUAUUACGCCCA | -2.49 ± 0.33 | -2.72 ± 0.34 |
| CCAAAGCAAUAUUACGCCUU | -3.62 ± 0.34 | -2.88 ± 0.32 |
| CCAAAGCAAUAUUACGCGAG | -2.62 ± 0.098 | -1.42 ± 0.094 |
| CCAAAGCAAUAUUACGCGGA | -3.47 ± 0.22 | -2.76 ± 0.3 |
| CCAAAGCAAUAUUACGCUGA | -4.48 ± 0.36 | -2.75 ± 0.19 |
| CCAAAGCAAUAUUACGCUUG | -3.7 ± 0.18 | -2.93 ± 0.2 |
| CCAAAGCAAUAUUACGGCAU | -3.72 ± 0.15 | -2.23 ± 0.15 |
| CCAAAGCAAUAUUACGGCUA | -4.05 ± 0.43 | -2.28 ± 0.28 |
| CCAAAGCAAUAUUACGGGAG | -3.08 ± 0.18 | -2.78 ± 0.26 |
| CCAAAGCAAUAUUACGGGAU | -3.6 ± 0.15 | -2.37 ± 0.14 |
| CCAAAGCAAUAUUACGUAAA | -3.24 ± 0.11 | -2.07 ± 0.14 |

| Sequence | self-splicing fitness (ln) (30 °C) | self-splicing fitness (ln) (37 °C) |
| --- | --- | --- |
| CCAAAGCAAUAUUACGUAAU | -4.12 ± 0.18 | -2.62 ± 0.19 |
| CCAAAGCAAUAUUACGUAGA | -3.5 ± 0.17 | -2.55 ± 0.18 |
| CCAAAGCAAUAUUACGUCAC | -4.61 ± 0.25 | -2.14 ± 0.19 |
| CCAAAGCAAUAUUACGUGAC | -4.61 ± 0.32 | -2.12 ± 0.26 |
| CCAAAGCAAUAUUACGUGUG | -1.33 ± 0.055 | -0.624 ± 0.066 |
| CCAAAGCAAUAUUACGUUAC | -3.75 ± 0.22 | -3.75 ± 0.36 |
| CCACAGCAAUAUUACGAAGU | -3.69 ± 0.18 | -3.17 ± 0.21 |
| CCACAGCAAUAUUACGAAUG | -1.11 ± 0.061 | -0.833 ± 0.071 |
| CCACAGCAAUAUUACGAUAC | -3.48 ± 0.24 | -2.16 ± 0.22 |
| CCACAGCAAUAUUACGAUGU | -4.02 ± 0.24 | -1.89 ± 0.15 |
| CCACAGCAAUAUUACGAUUG | -1.3 ± 0.05 | -0.453 ± 0.067 |
| CCACAGCAAUAUUACGCAUA | -3.46 ± 0.18 | -2.42 ± 0.19 |
| CCACAGCAAUAUUACGCCAU | -3.59 ± 0.2 | -1.36 ± 0.21 |
| CCACAGCAAUAUUACGCCUG | -1.51 ± 0.092 | -0.296 ± 0.1 |
| CCACAGCAAUAUUACGCGCC | -3.03 ± 0.29 |  |
| CCACAGCAAUAUUACGGAGU | -3.32 ± 0.16 | -1.32 ± 0.14 |
| CCACAGCAAUAUUACGGCCG | -0.955 ± 0.073 | 0.0456 ± 0.1 |
| CCACAGCAAUAUUACGGCCU | -3.94 ± 0.24 | -3.38 ± 0.31 |
| CCACAGCAAUAUUACGGGAG | -2.29 ± 0.14 | -2.97 ± 0.19 |
| CCACAGCAAUAUUACGGUAA | -3 ± 0.14 | -2.2 ± 0.18 |
| CCACAGCAAUAUUACGUACU | -2.01 ± 0.12 | -1.93 ± 0.19 |
| CCACAGCAAUAUUACGUAGG | -2.62 ± 0.093 | -2.18 ± 0.14 |
| CCACAGCAAUAUUACGUAUU | -3.57 ± 0.15 | -2.01 ± 0.14 |
| CCACAGCAAUAUUACGUUAG | -1.56 ± 0.062 | -0.188 ± 0.071 |
| CCACAGCAAUAUUACGUUUU | -3.73 ± 0.16 | -3.7 ± 0.22 |

| Sequence | self-splicing fitness (ln) (30 °C) | self-splicing fitness (ln) (37 °C) |
| --- | --- | --- |
| CCAGAGCAAUAUUACGAGCU | -3.54 ± 0.34 | -2.35 ± 0.45 |
| CCAGAGCAAUAUUACGAGUU | -1.94 ± 0.14 | -2.9 ± 0.27 |
| CCAGAGCAAUAUUACGAUCG | -0.986 ± 0.11 | -0.589 ± 0.14 |
| CCAGAGCAAUAUUACGAUUG | -1.42 ± 0.11 | -0.92 ± 0.14 |
| CCAGAGCAAUAUUACGCGUU | -4.06 ± 0.23 | -2.65 ± 0.18 |
| CCAGAGCAAUAUUACGGAUC | -1.77 ± 0.32 |  |
| CCAGAGCAAUAUUACGGCCG | -1.72 ± 0.16 | -0.276 ± 0.31 |
| CCAGAGCAAUAUUACGGCCU | -2.77 ± 0.13 | -1.27 ± 0.17 |
| CCAGAGCAAUAUUACGGCGC | -3.67 ± 0.25 | -2 ± 0.26 |
| CCAGAGCAAUAUUACGGCGG | -3.72 ± 0.18 | -1.92 ± 0.24 |
| CCAGAGCAAUAUUACGGGAG | -3.51 ± 0.23 | -3.55 ± 0.3 |
| CCAGAGCAAUAUUACGGUUA | -2.7 ± 0.18 | -2.01 ± 0.25 |
| CCAGAGCAAUAUUACGGUUU | -4.44 ± 0.39 | -3.07 ± 0.32 |
| CCAGAGCAAUAUUACGUACC |  | -2 ± 0.35 |
| CCAGAGCAAUAUUACGUAUC | -2.62 ± 0.17 | -1.73 ± 0.25 |
| CCAGAGCAAUAUUACGUAUU | -3.91 ± 0.18 | -2.41 ± 0.17 |
| CCAGAGCAAUAUUACGUCAU | -3.64 ± 0.28 | -2.81 ± 0.18 |
| CCAGAGCAAUAUUACGUGCU | -3.37 ± 0.24 | -3.56 ± 0.42 |
| CCAGAGCAAUAUUACGUGGU | -2.75 ± 0.12 | -2.96 ± 0.21 |
| CCAGAGCAAUAUUACGUUCA | -2.45 ± 0.32 | -2.32 ± 0.34 |
| CCAUAGCAAUAUUACGAAAC | -4.09 ± 0.35 | -2 ± 0.29 |
| CCAUAGCAAUAUUACGACCG | -0.0743 ± 0.15 | -0.0737 ± 0.22 |
| CCAUAGCAAUAUUACGACUA |  | -1.71 ± 0.37 |
| CCAUAGCAAUAUUACGAGGU | -3.37 ± 0.26 | -2.67 ± 0.23 |
| CCAUAGCAAUAUUACGAUAG | -0.989 ± 0.06 | -0.387 ± 0.076 |

| Sequence | self-splicing fitness (ln) (30 °C) | self-splicing fitness (ln) (37 °C) |
| --- | --- | --- |
| CCAUAGCAAUAUUACGCCGU | -4.03 ± 0.34 | -1.91 ± 0.35 |
| CCAUAGCAAUAUUACGCGCU | -3.87 ± 0.27 | -3.05 ± 0.4 |
| CCAUAGCAAUAUUACGCUGC | -3.84 ± 0.3 | -2.25 ± 0.27 |
| CCAUAGCAAUAUUACGGAGC |  | -2.74 ± 0.31 |
| CCAUAGCAAUAUUACGGCGC | -1.25 ± 0.19 | -2.07 ± 0.3 |
| CCAUAGCAAUAUUACGGCGU | -3.98 ± 0.3 | -1.97 ± 0.23 |
| CCAUAGCAAUAUUACGGGAA | -3.49 ± 0.19 | -2.84 ± 0.18 |
| CCAUAGCAAUAUUACGGGCU | -3.65 ± 0.27 | -2.19 ± 0.19 |
| CCAUAGCAAUAUUACGGUAA | -3.53 ± 0.33 | -3.26 ± 0.35 |
| CCAUAGCAAUAUUACGGUGG | -3.66 ± 0.13 | -3.4 ± 0.18 |
| CCAUAGCAAUAUUACGGUUC | -4.2 ± 0.46 | -2.03 ± 0.35 |
| CCAUAGCAAUAUUACGUACG | -0.658 ± 0.07 | 0.351 ± 0.086 |
| CCAUAGCAAUAUUACGUAGU | -3.93 ± 0.24 | -2.14 ± 0.23 |
| CCAUAGCAAUAUUACGUAUC | -2.32 ± 0.15 | -2.01 ± 0.31 |
| CCAUAGCAAUAUUACGUCAG | -1.74 ± 0.13 | -1.61 ± 0.15 |
| CCAUAGCAAUAUUACGUCGG | -3.15 ± 0.19 | -2.02 ± 0.29 |
| CCAUAGCAAUAUUACGUGGG | -4.18 ± 0.16 | -2.96 ± 0.15 |
| CCAUAGCAAUAUUACGUUCC | -3.61 ± 0.39 | -2.52 ± 0.44 |
| CCCAAGCAAUAUUACGAAGU | -2.98 ± 0.15 | -2.19 ± 0.18 |
| CCCAAGCAAUAUUACGACAC | -2.66 ± 0.2 | -3.25 ± 0.43 |
| CCCAAGCAAUAUUACGACGA | -2.93 ± 0.17 | -1.49 ± 0.14 |
| CCCAAGCAAUAUUACGACGC | -2.8 ± 0.22 | -0.545 ± 0.23 |
